From paper PMC5300761, “Characterizing the Coding Region Determinant-Binding Protein (CRD-BP)-Microphthalmia-associated Transcription Factor (MITF) mRNA interaction”

Key:
[1] = biological target: T1, CRD-BP WT (mouse, UniProt O88477 1-577); test: fluorescence polarization; 10 nM RNA, 0-1000 nM protein; EMSA as in refs 21,22 (buffer not given; competitor preincubation 35 C); FP: binding buffer stock 10 mM Tris-HCl pH 7.4, 2.5 mM EDTA, 5% glycerol, 0.002% Triton X-100, 37 C 30 min; details: protein: recombinant; (pET28b(+), Ni-NTA); label: 3' 6-FAM
[2] = biological target: T1, CRD-BP WT; test: fluorescence polarization; 10 nM oligo, 0-1000 nM protein; EMSA as in refs 21,22 (buffer not given; competitor preincubation 35 C); FP: binding buffer stock 10 mM Tris-HCl pH 7.4, 2.5 mM EDTA, 5% glycerol, 0.002% Triton X-100, 37 C 30 min; details: protein: recombinant; (pET28b(+), Ni-NTA); label: 3' 6-FAM

T1 sequence (O88477 whole entry): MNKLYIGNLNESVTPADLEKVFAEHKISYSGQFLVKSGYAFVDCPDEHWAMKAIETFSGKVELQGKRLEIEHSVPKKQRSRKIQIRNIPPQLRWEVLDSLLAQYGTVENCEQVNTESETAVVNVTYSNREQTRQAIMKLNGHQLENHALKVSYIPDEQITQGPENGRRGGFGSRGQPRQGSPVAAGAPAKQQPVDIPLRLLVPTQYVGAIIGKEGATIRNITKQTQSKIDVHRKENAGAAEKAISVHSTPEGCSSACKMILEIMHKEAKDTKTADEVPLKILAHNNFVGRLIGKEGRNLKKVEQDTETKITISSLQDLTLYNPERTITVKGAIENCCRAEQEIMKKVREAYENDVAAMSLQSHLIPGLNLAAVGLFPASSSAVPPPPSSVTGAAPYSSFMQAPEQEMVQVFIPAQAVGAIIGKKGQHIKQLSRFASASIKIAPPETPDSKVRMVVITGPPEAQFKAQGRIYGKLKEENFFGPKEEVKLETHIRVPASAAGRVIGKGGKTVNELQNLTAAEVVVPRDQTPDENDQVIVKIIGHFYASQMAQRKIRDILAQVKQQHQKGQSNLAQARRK

B1: FL-CD44 RNA (ssRNA)
RNA: AAAUUAGGGCCCAAUUAAUAAUCAGCAAGAAUUUGAUCG
B1: binds [1].

B2: MHO-1_FL (ssDNA)
DNA: TAAAAATCTCAAATCAAGTTTC
B2: no binding [2].

B3: MHO-7_FL (ssDNA)
DNA: ATTCAGTTCACAGATACTGCAC
B3: no binding [2].
